Measurements taken from EP4663659A1 (Merck Patent GmbH, dated 2025).

Biological target: T1, mouse CD40 (mouse, UniProt P27512 20-193, limits assumed)
T1 construct: also called mCD40
T1 sequence (looked up): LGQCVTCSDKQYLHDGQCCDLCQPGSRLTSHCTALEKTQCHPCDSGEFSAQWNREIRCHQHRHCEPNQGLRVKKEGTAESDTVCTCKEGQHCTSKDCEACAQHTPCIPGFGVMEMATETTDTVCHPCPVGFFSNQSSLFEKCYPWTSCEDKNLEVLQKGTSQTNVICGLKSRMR
Experiment: not described; the molecule was used as isotype control in mice

binding result: no binding
B1: Fusion protein 1 (FP1), anti-MUC-1 × anti-CD40 bispecific binding protein (bispecific antibody, human IgG1, lambda, L234A L235A)
heavy: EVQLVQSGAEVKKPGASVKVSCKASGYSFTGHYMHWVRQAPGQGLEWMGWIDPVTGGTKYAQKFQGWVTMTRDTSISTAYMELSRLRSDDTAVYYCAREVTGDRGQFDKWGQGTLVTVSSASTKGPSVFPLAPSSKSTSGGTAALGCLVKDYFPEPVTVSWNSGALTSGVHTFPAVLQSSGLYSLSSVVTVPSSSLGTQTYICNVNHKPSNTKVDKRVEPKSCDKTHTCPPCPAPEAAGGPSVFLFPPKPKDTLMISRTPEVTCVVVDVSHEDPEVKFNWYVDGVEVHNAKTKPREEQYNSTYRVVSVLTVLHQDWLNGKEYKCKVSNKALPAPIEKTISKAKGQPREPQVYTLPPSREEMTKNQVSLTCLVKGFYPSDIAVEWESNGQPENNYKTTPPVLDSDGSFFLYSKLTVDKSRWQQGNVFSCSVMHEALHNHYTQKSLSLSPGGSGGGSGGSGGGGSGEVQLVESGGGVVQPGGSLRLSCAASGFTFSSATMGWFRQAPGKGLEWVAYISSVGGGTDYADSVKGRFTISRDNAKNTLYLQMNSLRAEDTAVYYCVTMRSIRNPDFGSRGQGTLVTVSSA
light: SYVLTQPPSVSVAPGKTARITCGGNNIGSKSVHWYQQKPGQAPVLVIYYGSNRPSGIPERFSGSNSGNTATLTISRVEAGDEADYYCQVWDSSSDWVFGGGTKLTVLGQPKAAPSVTLFPPSSEELQANKATLVCLISDFYPGAVTVAWKADSSPVKAGVETTTPSKQSNNKYAASSYLSLTPEQWKSHKSYSCQVTHEGSTVEKTVAPTECS
notes: Fully human anti-MUC-1 IgG1 with one anti-human CD40 VHH fused by a 15 aa GS linker to the C-terminus of each heavy chain; also called Anti MUC-1 × CD40; anti MUC-1 × hCD40 A02
